Source: patent US20120165265A1, “Calcium Signaling Modulators Involving STIM and ORAI Proteins” (priority 2009, published 2012)

Tests used:
[1] = test system: endogenous CRAC channels; assay: NFAT-luciferase assay in HEK 293T (NFAT-Luc) cells; type: cell-based; settings: HEK 293T NFAT-luc cells transfected with STIM1 construct; PMA (1 μM) alone
Experimental: NFAT-luciferase Assays. HEK 293T cells were co-transfected with the indicated constructs and an NFAT reporter gene (firefly luciferase gene C-terminal to 4×-NFAT site from the IL-2 gene). Cotransfection with the Renilla luciferase (pRLTK) gene driven by the TK promoter was used to control for cell number and transfection efficiency. After 12-18 h, cells were treated with a control DMSO solution (mock), PMA (1 μM), or PMA plus TG (1 μM) for 8 h. Assays were performed using the Dual Luciferase Reporter assay system (Promega). For each condition, luciferase activity was measured with 4 samples taken from duplicate wells using a 96-well automated luminometer (Turner Biosystems). Results are represented as the ratio of firefly to Renilla luciferase activity.
Identifying a Minimal Cytosolic Region of STIM1 that Opens the CRAC Channel. To identify the CRAC-activating domain of STIM1, we first tested a series of soluble cytosolic STIM1 fragments for their ability to activate an NFAT-dependent luciferase reporter gene (NFAT-luc). A series of constructs were generated by progressive truncation of the full-length cytosolic region of STIM1 (FIG. 2A; STIM1234-685; CT-STIM1) and were transiently expressed in a HEK 293T cell line containing NFAT-luc. […]

[2] = biological target: T1, CRAC channels (Homo sapiens, UniProt Q96D31); assay: [Ca2+]i imaging in HEK 293 cells expressing STIM1 fragment and Orai1; type: cell-based
T1 construct: expressed in transfected cells; host or cells: HEK 293
Experimental: Ca^2+ Imaging. For FIG. 2, cells were loaded at 37° C. in DMEM with 1 μM fura-2/AM for 30 min. Ratiometric Ca2+ imaging was performed at 340 and 380 nm in 2 mM Ca2+ Ringer's solution with a Nikon Eclipse 2000-U inverted microscope equipped with a fluorescent arc lamp, excitation filter wheel, and a Hamamatsu Orca CCD camera. Images were collected using Openlab (Improvision) and analyzed using Igor Pro.
To determine if CAD activates store operated Ca^2+ influx in cells, we measured [Ca^2+]i in HEK 293 cells expressing CAD and Orai1.

[3] = biological target: T2, Orai1 (Homo sapiens, UniProt Q96D31); assay: Co-immunoprecipitation with Orai1 in HEK 293T cells; type: binding; parameters: expressed in transfected cells; host or cells: HEK 293; settings: 150 mM salt, 1% Triton X-100
Experimental: Immunoprecipitation and Immunoblot Analysis. Transfected HEK 293T cells (12-24 h) were washed with PBS and lysed in 50 mM Tris-HCl pH 7.5, 150 mM NaCl, 1% Triton X-100, and protease inhibitors. Lysates were spun at 12,000 rpm for 10 min, and the supernatant was incubated with anti-Flag M2 agarose beads (Sigma), or anti-myc or -HA antibody followed by IgG agarose beads (Pierce). Lysates and immunoprecipitates were subjected to SDS-PAGE, probed with HRP-conjugated secondary antibody and detected by enhanced chemiluminescence (Pierce).
CAD Associates with Orai1 in vivo and in vitro. Because cytosolic CAD is a potent activator of Orai1 channels and is not associated with the ER, we hypothesized that CAD binds to Orai1. To test this idea, we first expressed YFP-CAD with or without myc-Orai1 in HEK 293 cells and examined its intracellular localization. […] To provide additional evidence that CAD and Orai1 are part of the same protein complex we expressed Flag-tagged CAD and GFP-tagged Orai1 in HEK 293T cells and immunoprecipitated CAD with anti-Flag antibodies. GFP-myc-Orai1 was detected in the immunoprecipitates from cells co-expressing CAD and Orai1 but not from cells expressing CAD or Orai1 alone (FIG. 3B).
Thus, CAD and Orai1 form a protein complex in mammalian cells.

[4] = biological target: T3, EE-Orai1-His8 (Homo sapiens, UniProt Q96D31); assay: GST pull-down assay with purified proteins; type: binding; settings: in vitro
T3 construct: made in house; host or cells: Hi5 insect cells (baculovirus, pVL1393)
Experimental: GST Pull-down Assays. For GST pull-down assays, either GST-CAD (0.16 μM) or GST (0.15 μM) was incubated with EE-Orai1-His8 (0.1 μM) for 1 h in buffer containing (in mM): 20 Tris-HCl (pH 8.0), 150 NaCl, 20 imidazole, and 1 DTT with protease inhibitors. After addition of glutathione sepharose the beads were centrifuged, washed with the above buffer, and the precipitated proteins were eluted with boiling SDS and analyzed by SDS-PAGE and Western blotting.
CAD Binds Directly to Orai1. To test for direct binding between the CAD and Orai1 we generated a GST-tagged CAD peptide in E. coli and an Orai1 protein containing C-terminal octa-histidine and N-terminal EEYMPME (“EE”) tags in insect Hi5 cells. We incubated purified GST-CAD or GST alone with purified EE-Orai1-His8 and used glutathione beads to precipitate the complexes.

[5] = biological target: T2, Orai1; assay: Puncta formation of STIM1 variants by confocal microscopy in HEK 293 cells; type: cell-based; parameters: expressed in transfected cells; host or cells: HEK 293; settings: coexpressed with eGFP-Orai1, TG
Experimental: (§1) Confocal Microscopy. 6 h after transfection, HEK 293 cells were plated onto sterilized coverslips coated with poly-D-lysine and maintained in complete DMEM for an additional 12-18 h before imaging in Ringer's solution containing (in mM): 155 NaCl, 4.5 KCl, 2 CaCl2, 1 MgCl2, 10 D-glucose, and 5 Na-Hepes, pH 7.4. To deplete stores, cells were treated with 1 μM TG in Ca2+-free Ringer's (prepared by substituting 2 mM MgCl2 and 1 mM EGTA for CaCl2) for 10 min. eGFP and mCherry were excited simultaneously at 488 and 594 nm, respectively, on a Leica SP2 AOBS inverted confocal microscope equipped with a PL APO 100×/NA 1.4 oil immersion objective. Fluorescence emissions were collected at 615-840 nm (mCherry) and 510-570 nm (eGFP). All experiments were performed at 22-25° C.
Quantitation of STIM1 and Orai1 Recruitment into Puncta. Colocalization of eGFP-Orai1 and mCh-STIM1 variants was analyzed from background-corrected confocal image pairs acquired before and after store depletion. Puncta have two defining characteristics: (1) because they are sites of accumulation, STIM1 and Orai1 fluorescence intensities in puncta are greater than the respective mean intensities measured across the entire cell, and (2) because STIM1 and Orai1 co-localize in puncta, their fluorescence covariance is high. For each STIM1/Orai1 image pair, we computed the covariance of each pixel as (Si−s) (Oi−o), where Si and Oi are the STIM1 and Orai1 fluorescence of pixel i, and s and o are the mean STIM1 and Orai1 fluorescence of the entire cell. A threshold criterion for puncta was set using the pre-depletion image pair. The mean and s.d. of the covariance values were calculated from pixels for which both Si>s and Oi>o, and a covariance threshold was set equal to the mean+2×s.d. of this pre-depletion condition. Binary masks were applied to the pre- and post-depletion image pairs to isolate pixels for which Si>s and Oi>o and whose covariance exceeds the pre-depletion threshold. […] Integrated STIM1 or Orai1 puncta intensity was calculated from the masked images and expressed as a fraction of the total fluorescence intensity in the unmasked image. […]
The Role of CAD in Orai1 Binding and Activation by STIM1. […] To address this, we measured the ability of mCherry-tagged STIM1 variants containing CAD mutations to co-cluster with eGFP-Orai1 and activate Ca^2+ entry in response to TG (FIG. 7). STIM1-Orai1 colocalization was quantified as the fraction of total STIM1 and Orai1 fluorescence that was recruited to regions of high fluorescence covariance (FIG. 13), while Ca^2+ influx was measured with single cell Ca^2+ imaging. For each set of experiments we measured mCherry and GFP fluorescence to confirm that differences in the activity of the various STIM1 constructs were not due to differences in expression level (FIG. 14).

[6] = biological target: T2, Orai1; assay: Store-operated Ca2+ entry by STIM1 variants, single cell Ca2+ imaging; type: cell-based; parameters: expressed in transfected cells; host or cells: HEK 293; settings: coexpressed with eGFP-Orai1, TG
Experimental: For FIG. 7, cells were loaded as above with 2 μM fura-2/AM for 25 min. Ratiometric Ca2+ imaging was performed with 350 and 380 nm excitation in 2 mM Ca2+ Ringer's solution on an Axiovert 35 inverted microscope using a VideoProbe imaging system as described (Bautista et al., 2002). mCherry-positive cells were identified using a 540±12 nm excitation and a 580LP emission filter (Chroma).
The Role of CAD in Orai1 Binding and Activation by STIM1. A key question is whether CAD is responsible for the clustering and activation of CRAC channels by full-length STIM1 following store depletion. To address this, we measured the ability of mCherry-tagged STIM1 variants containing CAD mutations to co-cluster with eGFP-Orai1 and activate Ca^2+ entry in response to TG (FIG. 7). STIM1-Orai1 colocalization was quantified as the fraction of total STIM1 and Orai1 fluorescence that was recruited to regions of high fluorescence covariance (FIG. 13), while Ca^2+ influx was measured with single cell Ca^2+ imaging. For each set of experiments we measured mCherry and GFP fluorescence to confirm that differences in the activity of the various STIM1 constructs were not due to differences in expression level (FIG. 14).

[7] = test system: Orai1; assay: Puncta formation of STIM1 variants by confocal microscopy in HEK 293 cells; type: cell-based; settings: expressed alone in HEK 293 cells
Experimental: as §1
Quantitation of STIM1 and Orai1 Recruitment into Puncta. Colocalization of eGFP-Orai1 and mCh-STIM1 variants was analyzed from background-corrected confocal image pairs acquired before and after store depletion. Puncta have two defining characteristics: (1) because they are sites of accumulation, STIM1 and Orai1 fluorescence intensities in puncta are greater than the respective mean intensities measured across the entire cell, and (2) because STIM1 and Orai1 co-localize in puncta, their fluorescence covariance is high. […]

[8] = biological target: T2, Orai1; assay: Whole-cell patch clamp recording of ICRAC in transfected HEK 293 cells; type: cell-based; parameters: expressed in transfected cells; host or cells: HEK 293
Experimental: Electrophysiology. HEK 293 cells were transfected 8-24 h prior to electrophysiology experiments with STIM1- and Orai1-derived constructs in a 1:1 mass ratio using Lipofectamine 2000. […] ICRAC in cells cultured without LaCl3 was similar to that in cells cultured with LaCl3, but most cells without LaCl3 died soon after break-in.
Currents were recorded using standard whole-cell patch clamp techniques (Prakriya and Lewis, 2001). Pipettes of resistance 2-5 MΩ were filled with an internal solution containing (in mM) 150 Cs aspartate, 8 MgCl2, 10 EGTA, and 10 HEPES (pH 7.2 with CsOH). Currents were sampled at 5 kHz and filtered at 2 kHz, and all voltages were corrected for the junction potential of the pipette solution relative to Ringer's in the bath (−13 mV).
Patch-clamp Experiments. Pipette-membrane seals were formed in 2 mM Ca^2+ Ringer's solution. After break-in to the whole-cell configuration, voltage stimuli consisting of a 100-ms step to −100 mV followed by a 100-ms ramp from −100 to +100 mV were delivered every 5 s from the holding potential of +30 mV. After the currents reached a steady level (˜300 s for wild-type STIM1), the external solution was changed via a multibarrel local perfusion pipette to a high-Ca^2+ Ringer's containing (in mM) 130 NaCl, 4.5 KCl, 20 CaCl2, 1 MgCl2, 10 D-glucose, and 5 HEPES (pH 7.4 with NaOH). All data were leak-corrected using the current elicited in 20 mM Ca^2+ Ringer's+10 μM LaCl3 at the end of the each experiment. LaCl3 and 2-APB were added directly to parent solutions on the day of the experiment from 10 mM and 100 mM stocks in H2O and DMSO, respectively.
As a definitive test for CRAC channel activation, we conducted whole-cell patch clamp recordings from HEK 293 cells transiently transfected with myc-Orai1 and either YFP-STIM1 or YFP-CAD. In cells expressing full length YFP-STIM1, ICRAC appeared over several minutes following break-in, consistent with the typical slow activation seen in response to passive store depletion (FIG. 2D). […] In contrast, inward current was present from the moment of break-in in cells expressing YFP-CAD (FIG. 2E). This current was identified as ICRAC based on its dependence on extracellular Ca^2+, inward rectification, sequential enhancement and inhibition by 2-APB, and inhibition by La^3+ (FIG. 2E and FIG. 10 C, D). ICRAC was not observed at break-in in HEK 293 cells transfected with YFP or YFP-CAD in the absence of Orai1 (FIG. 2F), consistent with the low level of endogenous STIM1 and Orai1 in these cells. […] Inactivation was restored by addition of STIM1 residues carboxy-terminal to CAD.

[9] = biological target: T2, Orai1; assay: Intracellular localization of YFP-CAD in HEK 293 cells; type: cell-based; parameters: expressed in transfected cells; host or cells: HEK 293; settings: with myc-Orai1
Experimental: as §1
CAD Associates with Orai1 in vivo and in vitro. Because cytosolic CAD is a potent activator of Orai1 channels and is not associated with the ER, we hypothesized that CAD binds to Orai1. To test this idea, we first expressed YFP-CAD with or without myc-Orai1 in HEK 293 cells and examined its intracellular localization. […] GFP-myc-Orai1 was detected in the immunoprecipitates from cells co-expressing CAD and Orai1 but not from cells expressing CAD or Orai1 alone (FIG. 3B).

T2 sequence (Q96D31 whole entry): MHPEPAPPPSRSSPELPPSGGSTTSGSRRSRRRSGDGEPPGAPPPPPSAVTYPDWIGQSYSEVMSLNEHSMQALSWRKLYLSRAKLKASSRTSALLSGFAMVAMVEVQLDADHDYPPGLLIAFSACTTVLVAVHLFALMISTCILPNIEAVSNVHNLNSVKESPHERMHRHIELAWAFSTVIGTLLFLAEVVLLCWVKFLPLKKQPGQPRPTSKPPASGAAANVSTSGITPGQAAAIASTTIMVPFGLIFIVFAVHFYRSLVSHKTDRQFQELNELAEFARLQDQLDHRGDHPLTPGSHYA
T1 sequence (Q96D31 whole entry, the tested form may be a part): as the sequence (Q96D31 whole entry) above
T3 sequence (Q96D31 whole entry): as above

CT-STIM1: full-length cytosolic region of STIM1 (aa 234-685) [reference compound]
activation of NFAT-dependent luciferase reporter gene (NFAT-luc) [1]: did not activate | resting [Ca2+]i ([2]; HEK 293T cells coexpressing construct and Orai1): did so | [Ca2+]i / CRAC channel activation ([2]; HEK 293 cells coexpressing construct and Orai1, no store depletion): did not elevate resting [Ca^2+]i | co-immunoprecipitation with Orai1 [3]: unable to detect any interaction

GST-CAD: GST-tagged CAD peptide generated in E. coli
co-precipitation of purified Orai1 with glutathione beads [4]: co-precipitated Orai1

STIM1 C437G: STIM1 C437G mutant
puncta formation with Orai1 after store depletion [5]: formed pronounced puncta with Orai1 | Ca2+ entry (SOCE) after store depletion [6]: only marginally activated SOCE

STIM1-DK: STIM1 lacking the polybasic C-terminal domain (aa 672-685)
puncta formation after store depletion [7]: failed to form puncta | ICRAC after store depletion ([8]; HEK 293 cells coexpressing STIM1 variant and Orai1): activated ICRAC | puncta formation with Orai1 after store depletion [5]: colocalized in puncta

STIM11-440: STIM1 1-448 with the final 8 aa deleted
puncta formation with Orai1 after store depletion [5]: retained the ability to form puncta and cluster Orai1 | Ca2+ entry (SOCE) after store depletion [6]: failed to activate SOCE

STIM11-448: STIM1 truncated from the C-terminus to the end of the CAD
puncta formation with Orai1 after store depletion [5]: formed puncta with Orai1 | Ca2+ entry (SOCE) after store depletion [6]: activated Ca^2+ entry

YFP-CAD: YFP-tagged CAD expressed in HEK 293 cells
constitutive ICRAC ([8]; HEK 293 cells cotransfected with construct and myc-Orai1, from break-in): constitutively active | localization on coexpression of Orai1 [9]: dramatic recruitment of YFP-CAD to the plasma membrane
